Earlier results on 1 substance are cited in paper PMC3507713.

As a reminder, the pKd is the negative decadic logarithm of the Kd, by convention in mol/L.

pKd: −log10 of the molar value.

For the series, the target named is TRAIL (Homo sapiens) (UniProt P50591).
Sequence of UniProt P50591 (P50591 whole entry): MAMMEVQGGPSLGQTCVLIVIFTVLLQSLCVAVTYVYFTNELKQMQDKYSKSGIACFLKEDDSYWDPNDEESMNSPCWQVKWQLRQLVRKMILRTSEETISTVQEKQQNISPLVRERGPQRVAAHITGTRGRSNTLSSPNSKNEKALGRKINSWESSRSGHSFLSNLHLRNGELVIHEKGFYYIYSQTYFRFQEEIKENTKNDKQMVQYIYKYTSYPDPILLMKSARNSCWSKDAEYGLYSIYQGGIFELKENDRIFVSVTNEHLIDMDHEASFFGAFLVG

In the case of Osteoprotegerin (from UniProt O00300), the pKd was 6.40.
